Assay results published in patent publication US10500249B2, “Compositions and methods for preventing or treating diseases, conditions, or processes characterized by aberrant fibroblast proliferation and extracellular matrix deposition” (MOERAE MATRIX, INC., priority 2014, dated 2019).

Tests used:
Assay in all cases: Kinase Profiling Assay
Assay type in all cases: biochemical
Settings in all cases: 100 μM
[1] = molecular target: T1, PKBα (h) (Homo sapiens, UniProt P31749)
T1 construct: purchased Millipore
T1 sequence (P31749 whole entry): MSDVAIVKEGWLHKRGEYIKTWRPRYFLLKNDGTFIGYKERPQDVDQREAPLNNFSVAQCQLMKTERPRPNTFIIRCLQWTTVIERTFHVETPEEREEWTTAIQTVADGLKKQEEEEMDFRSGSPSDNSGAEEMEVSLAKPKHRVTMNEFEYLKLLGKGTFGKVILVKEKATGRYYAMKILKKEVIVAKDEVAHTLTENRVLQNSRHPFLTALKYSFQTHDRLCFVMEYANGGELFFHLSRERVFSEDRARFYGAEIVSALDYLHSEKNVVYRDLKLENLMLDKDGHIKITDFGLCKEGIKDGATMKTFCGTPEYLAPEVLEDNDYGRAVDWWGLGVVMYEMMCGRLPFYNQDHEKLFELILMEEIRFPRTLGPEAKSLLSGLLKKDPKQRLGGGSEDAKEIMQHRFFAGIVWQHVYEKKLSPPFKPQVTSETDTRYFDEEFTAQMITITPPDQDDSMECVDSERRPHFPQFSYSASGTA
How it was run: (§1)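 In this 266-kinase specificity panel, every measurement was duplicated. Transfer of labeled phosphate from ATP to a cationic substrate was quantified after the substrate adhered to an anionic filter membrane and was scintillation-counted, then related to a full-activity control.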

[2] = molecular target: T2, DAPK2 (h) (Homo sapiens, UniProt Q9UIK4)
T2 construct: purchased Millipore
T2 sequence (Q9UIK4 whole entry): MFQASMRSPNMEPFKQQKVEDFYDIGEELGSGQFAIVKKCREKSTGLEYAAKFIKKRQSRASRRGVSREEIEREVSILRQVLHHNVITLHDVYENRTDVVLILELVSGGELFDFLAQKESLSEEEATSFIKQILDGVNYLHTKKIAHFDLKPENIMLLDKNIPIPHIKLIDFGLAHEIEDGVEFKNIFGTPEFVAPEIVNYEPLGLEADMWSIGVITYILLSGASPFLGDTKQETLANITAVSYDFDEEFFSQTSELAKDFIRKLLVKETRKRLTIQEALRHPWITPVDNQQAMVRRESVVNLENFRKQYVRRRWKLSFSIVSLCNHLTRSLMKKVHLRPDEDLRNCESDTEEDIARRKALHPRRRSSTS
How it was run: as §1

[3] = molecular target: T3, TSSK1 (h) (Homo sapiens, UniProt Q9BXA7)
T3 sequence (Q9BXA7 1-367): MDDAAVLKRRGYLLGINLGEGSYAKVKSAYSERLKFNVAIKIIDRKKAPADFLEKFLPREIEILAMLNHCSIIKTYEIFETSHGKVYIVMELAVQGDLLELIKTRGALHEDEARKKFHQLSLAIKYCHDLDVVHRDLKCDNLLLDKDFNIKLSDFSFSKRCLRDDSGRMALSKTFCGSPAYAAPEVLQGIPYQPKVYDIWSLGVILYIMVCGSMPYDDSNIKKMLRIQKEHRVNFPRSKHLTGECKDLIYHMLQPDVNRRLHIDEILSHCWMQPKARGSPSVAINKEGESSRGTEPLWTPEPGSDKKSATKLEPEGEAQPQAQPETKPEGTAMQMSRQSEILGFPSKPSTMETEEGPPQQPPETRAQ
How it was run: as §1

[4] = molecular target: STK33 (h) (Homo sapiens, UniProt Q9BYT3)
Chain of STK33 (h) (Q9BYT3 whole entry): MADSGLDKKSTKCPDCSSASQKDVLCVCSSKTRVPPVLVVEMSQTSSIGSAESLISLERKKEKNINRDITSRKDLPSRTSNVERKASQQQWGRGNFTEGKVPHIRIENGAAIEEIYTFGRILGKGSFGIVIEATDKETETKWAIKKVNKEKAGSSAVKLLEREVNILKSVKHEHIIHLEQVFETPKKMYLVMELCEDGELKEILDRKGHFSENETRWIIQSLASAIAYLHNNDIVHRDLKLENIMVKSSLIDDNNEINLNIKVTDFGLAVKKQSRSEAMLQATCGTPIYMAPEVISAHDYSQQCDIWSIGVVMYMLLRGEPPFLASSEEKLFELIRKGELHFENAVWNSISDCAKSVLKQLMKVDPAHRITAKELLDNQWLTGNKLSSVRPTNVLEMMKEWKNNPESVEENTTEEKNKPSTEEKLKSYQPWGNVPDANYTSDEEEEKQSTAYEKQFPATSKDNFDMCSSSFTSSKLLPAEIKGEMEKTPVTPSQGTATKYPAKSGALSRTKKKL
How it was run: as §1

[5] = molecular target: T4, cKit (h) (Homo sapiens, UniProt P10721)
T4 construct: purchased Millipore
How it was run: as §1

[6] = molecular target: T5, Mer (h) (Homo sapiens, UniProt Q12866)
T5 sequence (Q12866 21-999): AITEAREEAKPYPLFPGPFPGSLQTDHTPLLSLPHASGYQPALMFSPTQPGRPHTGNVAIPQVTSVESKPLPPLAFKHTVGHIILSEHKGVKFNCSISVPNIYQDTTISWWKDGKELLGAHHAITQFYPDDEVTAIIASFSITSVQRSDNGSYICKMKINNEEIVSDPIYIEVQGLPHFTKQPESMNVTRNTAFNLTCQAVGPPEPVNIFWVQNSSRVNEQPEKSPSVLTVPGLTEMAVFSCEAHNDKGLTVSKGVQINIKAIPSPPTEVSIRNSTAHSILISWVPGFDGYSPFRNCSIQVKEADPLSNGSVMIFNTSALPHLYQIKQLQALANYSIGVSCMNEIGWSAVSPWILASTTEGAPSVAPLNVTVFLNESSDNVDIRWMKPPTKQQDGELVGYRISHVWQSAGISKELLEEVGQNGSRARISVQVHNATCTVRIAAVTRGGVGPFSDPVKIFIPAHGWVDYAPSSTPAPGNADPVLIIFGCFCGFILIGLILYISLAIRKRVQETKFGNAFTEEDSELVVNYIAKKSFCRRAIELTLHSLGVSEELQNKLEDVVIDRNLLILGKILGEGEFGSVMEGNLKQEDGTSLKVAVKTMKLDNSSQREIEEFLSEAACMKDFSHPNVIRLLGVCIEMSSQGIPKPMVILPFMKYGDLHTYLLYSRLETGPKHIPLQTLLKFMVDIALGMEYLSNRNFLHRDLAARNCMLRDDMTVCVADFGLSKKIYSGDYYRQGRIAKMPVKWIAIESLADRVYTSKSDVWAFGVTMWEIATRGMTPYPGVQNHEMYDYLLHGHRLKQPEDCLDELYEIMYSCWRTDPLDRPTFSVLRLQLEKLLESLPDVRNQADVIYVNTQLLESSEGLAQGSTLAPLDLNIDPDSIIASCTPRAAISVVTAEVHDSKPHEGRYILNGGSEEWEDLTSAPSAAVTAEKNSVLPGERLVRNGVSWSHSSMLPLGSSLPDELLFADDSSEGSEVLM
How it was run: as §1

[7] = molecular target: EphA5 (h) (Homo sapiens, UniProt P54756)
Chain of EphA5 (h) (P54756 25-1037): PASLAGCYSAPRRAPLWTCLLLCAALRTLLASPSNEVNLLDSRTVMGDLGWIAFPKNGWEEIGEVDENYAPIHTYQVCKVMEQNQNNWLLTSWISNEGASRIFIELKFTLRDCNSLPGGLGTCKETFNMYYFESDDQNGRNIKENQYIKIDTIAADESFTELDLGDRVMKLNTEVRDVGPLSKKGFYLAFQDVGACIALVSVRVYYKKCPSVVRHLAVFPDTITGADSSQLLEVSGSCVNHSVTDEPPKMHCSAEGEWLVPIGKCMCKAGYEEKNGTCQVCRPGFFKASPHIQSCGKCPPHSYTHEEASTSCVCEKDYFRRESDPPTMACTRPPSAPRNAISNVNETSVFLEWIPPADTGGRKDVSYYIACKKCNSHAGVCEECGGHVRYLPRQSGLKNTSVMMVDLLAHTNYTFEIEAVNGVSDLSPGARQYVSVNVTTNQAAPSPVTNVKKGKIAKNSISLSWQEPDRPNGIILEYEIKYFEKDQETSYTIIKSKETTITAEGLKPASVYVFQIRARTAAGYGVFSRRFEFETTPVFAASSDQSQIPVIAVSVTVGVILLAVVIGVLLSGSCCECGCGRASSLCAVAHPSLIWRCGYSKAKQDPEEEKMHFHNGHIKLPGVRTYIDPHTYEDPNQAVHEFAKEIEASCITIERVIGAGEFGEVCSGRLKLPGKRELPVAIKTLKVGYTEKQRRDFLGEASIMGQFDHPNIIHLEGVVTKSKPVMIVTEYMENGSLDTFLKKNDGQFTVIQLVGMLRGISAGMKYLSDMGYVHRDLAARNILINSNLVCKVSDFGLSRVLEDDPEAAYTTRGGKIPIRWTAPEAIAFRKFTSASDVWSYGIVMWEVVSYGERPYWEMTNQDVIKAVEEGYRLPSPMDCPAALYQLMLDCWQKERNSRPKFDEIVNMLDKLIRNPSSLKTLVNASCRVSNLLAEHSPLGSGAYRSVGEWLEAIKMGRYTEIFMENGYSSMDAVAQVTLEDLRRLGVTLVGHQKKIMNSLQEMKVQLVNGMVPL
How it was run: as §1

[8] = molecular target: Tie2 (h) (Homo sapiens, UniProt Q02763)
Chain of Tie2 (h) (Q02763 23-1124): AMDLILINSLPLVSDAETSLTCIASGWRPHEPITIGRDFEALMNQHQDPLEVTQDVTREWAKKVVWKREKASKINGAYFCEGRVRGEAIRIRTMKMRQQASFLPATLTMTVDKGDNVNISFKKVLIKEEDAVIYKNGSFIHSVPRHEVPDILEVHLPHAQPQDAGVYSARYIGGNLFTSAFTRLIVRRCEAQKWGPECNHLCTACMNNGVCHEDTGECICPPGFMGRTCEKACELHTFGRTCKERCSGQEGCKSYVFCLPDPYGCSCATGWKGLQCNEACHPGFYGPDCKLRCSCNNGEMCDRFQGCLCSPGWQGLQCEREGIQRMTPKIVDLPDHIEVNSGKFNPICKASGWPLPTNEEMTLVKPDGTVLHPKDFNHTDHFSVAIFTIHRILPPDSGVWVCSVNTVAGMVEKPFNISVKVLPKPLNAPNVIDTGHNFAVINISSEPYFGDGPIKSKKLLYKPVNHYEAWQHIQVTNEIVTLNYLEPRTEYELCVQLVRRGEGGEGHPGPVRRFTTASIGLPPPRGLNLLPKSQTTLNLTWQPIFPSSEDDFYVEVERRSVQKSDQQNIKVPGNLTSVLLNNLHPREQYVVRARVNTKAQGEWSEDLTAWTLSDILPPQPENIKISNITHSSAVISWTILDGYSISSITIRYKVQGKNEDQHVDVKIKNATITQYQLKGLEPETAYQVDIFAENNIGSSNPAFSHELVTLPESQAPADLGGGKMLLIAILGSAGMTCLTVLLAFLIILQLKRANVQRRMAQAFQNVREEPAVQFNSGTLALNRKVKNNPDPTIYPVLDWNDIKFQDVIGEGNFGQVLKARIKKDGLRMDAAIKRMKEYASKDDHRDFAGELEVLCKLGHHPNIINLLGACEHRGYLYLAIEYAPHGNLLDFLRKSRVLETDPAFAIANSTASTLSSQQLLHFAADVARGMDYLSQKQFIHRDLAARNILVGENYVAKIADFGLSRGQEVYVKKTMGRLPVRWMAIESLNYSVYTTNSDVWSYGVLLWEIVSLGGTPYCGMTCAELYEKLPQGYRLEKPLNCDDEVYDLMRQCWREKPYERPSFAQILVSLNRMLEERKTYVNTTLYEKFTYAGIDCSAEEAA
How it was run: as §1

[9] = molecular target: T6, TAK1 (h) (Homo sapiens, UniProt O43318)
T6 sequence (O43318 with tags, fused parts or gaps limits assumed): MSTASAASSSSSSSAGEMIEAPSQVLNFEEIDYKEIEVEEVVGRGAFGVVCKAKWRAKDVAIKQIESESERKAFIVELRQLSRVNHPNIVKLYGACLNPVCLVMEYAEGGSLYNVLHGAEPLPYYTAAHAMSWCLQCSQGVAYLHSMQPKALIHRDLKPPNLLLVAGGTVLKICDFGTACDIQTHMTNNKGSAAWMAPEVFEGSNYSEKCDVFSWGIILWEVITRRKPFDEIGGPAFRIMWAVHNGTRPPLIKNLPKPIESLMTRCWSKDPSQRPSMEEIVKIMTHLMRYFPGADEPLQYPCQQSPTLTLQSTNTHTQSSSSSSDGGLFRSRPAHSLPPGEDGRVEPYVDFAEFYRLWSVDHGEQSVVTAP
How it was run: as §1

[10] = molecular target: T7, Pim-3 (h) (Homo sapiens, UniProt Q86V86)
T7 construct: purchased Millipore
How it was run: as §1

[11] = molecular target: Fms (h) (Homo sapiens, UniProt P07333)
How it was run: as §1

[12] = molecular target: VRK2 (h) (Homo sapiens, UniProt Q86Y07)
Chain of VRK2 (h) (Q86Y07 whole entry): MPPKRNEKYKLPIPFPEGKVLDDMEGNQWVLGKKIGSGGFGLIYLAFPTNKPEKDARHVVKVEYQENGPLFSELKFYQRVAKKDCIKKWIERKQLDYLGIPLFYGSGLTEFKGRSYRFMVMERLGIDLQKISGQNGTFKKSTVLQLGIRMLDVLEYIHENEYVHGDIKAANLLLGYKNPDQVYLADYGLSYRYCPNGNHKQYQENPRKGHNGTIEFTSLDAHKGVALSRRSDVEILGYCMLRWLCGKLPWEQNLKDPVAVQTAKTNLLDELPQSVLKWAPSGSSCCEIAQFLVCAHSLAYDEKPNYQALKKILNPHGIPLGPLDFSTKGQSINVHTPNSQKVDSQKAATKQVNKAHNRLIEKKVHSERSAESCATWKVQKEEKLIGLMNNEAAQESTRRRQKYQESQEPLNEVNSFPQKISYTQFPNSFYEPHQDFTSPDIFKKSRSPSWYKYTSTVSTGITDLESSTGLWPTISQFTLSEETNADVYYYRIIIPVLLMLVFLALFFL
How it was run: as §1

| Sequence | % activity [1] [%] | % activity [2] [%] | % activity [3] [%] | % activity [4] [%] | % activity [5] [%] | % activity [6] [%] | % activity [7] [%] | % activity [8] [%] | % activity [9] [%] | % activity [10] [%] | % activity [11] [%] | % activity [12] [%] |
| --- | --- | --- | --- | --- | --- | --- | --- | --- | --- | --- | --- | --- |
| YARAAARQARAKALNRQLGVA (Mammalian) [MMI-0200] | 110 | 92 | 98 | 98 | 110 | 90 | 123 | 53 | 124 | 94 | 92 | – |
| HRRIKAWLKKIKALARQLGVAA (Mammalian) [MMI-0500] | 30 | 3 | 46 | 16 | 45 | 17 | 42 | 22 | – | 37 | 14 | 169 |
| FAKLAARLYRKALARQLGVAA [MMI-0300] | 57 | 32 | 79 | 45 | 53 | 52 | 18 | 26 | 122 | 80 | 45 | 161 |
| KAFAKLAARLYRKALARQLGVAA [MMI-0400] | 67 | 16 | 79 | 52 | 43 | 50 | 24 | 21 | 177 | 80 | 37 | 185 |
